One molecule from US6835806B2, “Cell growth regulation system” (Phoenix Pharmaceuticals, Inc., priority 2000, dated 2004) can be followed below.

The test system of this assay is Human umbilical vein endothelial cells (HUVEC). Description: [3H]thymidine incorporation, HUVEC growth in vitro. Format: cell-based. The note with it: increasing concentrations, FIG. 6C. The procedure:
To determine if the '362 peptide or the '367 peptide affects the in-vitro growth of cells, the '362 peptide was tested in culture dishes for the ability to inhibit the growth of prostrate tumor cells or of lung tumor cells. Radioactive hydrogen (^3 H) was attached to thymidine([^3H]hymidine), which is one of the components of DNA. Cells that grow in the presence of [^3H]thymidine incorporate the radioactive thymidine into their DNA.
Human umbilical vein endothelial cells (HUVEC) were also grown in increasing concentrations of the '362 peptide or '367 peptide in the presence of radioactive thymidine. HUVEC cells are commonly used to test for angiogenic regulation because these cells respond to angiogenic inhibitors in a fashion similar to the cells in the human body that form new blood vessels. […] Research protocols designed to elucidate the reasons for this unexpected difference in response of HUVEC to endostatin protein and to '362 peptide are set out in the Research Plan, Phoenix Pharmaceuticals, Inc., 2438 Wyandotte Street, Mountain View, Calif. 94043, (1999) which is hereby incorporated by reference.
(In general: Uptake of a labelled nucleoside into DNA is a usual measure of proliferation.)

B1: endostatin protein: protein of about 20 kDa with a zinc-binding domain, inhibitor of endothelial cell growth (FIG. 5) (protein, UniProt P39060 1572-1754, looked up)
Endostatin: HSHRDFQPVLHLVALNSPLSGGMRGIRGADFQCFQQARAVGLAGTFRAFLSSRLQDLYSIVRRADRAAVPIVNLKDELLFPSWEALFSGSEGPLKPGARIFSFDGKDVLRHPTWPQKSVWHGSDPNGRRLTESYCETWRTEAPSATGQASSLLGGRLLGQSAASCHHAYIVLCIENSFMTASK
modifications: Endostatin
B1: the “HUVEC growth rate (radioactive thymidine)” value was “dramatic reduction in HUVEC growth”.
